Experimental findings from paper PMC5691136 (2017) are described below.

The target in the assay is PS372424 (CXCR3 agonist).

B1: CXCR3-A expressed from pEGFPN2 in HEK-293 cells (HEK-CXCR3-A) (receptor)
chain: MVLEVSDHQVLNDAEVAALLENFSSSYDYGENESDSCCTSPPCPQDFSLNFDRAFLPALYSLLFLLGLLGNGAVAAVLLSRRTALSSTDTFLLHLAVADTLLVLTLPLWAVDAAVQWVFGSGLCKVAGALFNINFYAGALLLACISFDRYLNIVHATQLYRRGPPARVTLTCLAVWGLCLLFALPDFIFLSAHHDERLNATHCQYNFPQVGRTALRVLQLVAGFLLPLLVMAYCYAHILAVLLVSRGQRRLRAMRLVVVVVVAFALCWTPYHLVVLVDILMDLGALARNCGRESRVDVAKSVTSGLGYMHCCLNPLLYAFVGVKFRERMWMLLLRLGCPNQRGLQRQPSSSRRDSSWSETSEASYSGL
Broadly, the Kd is the equilibrium constant for the complex coming apart. Lower therefore signals a tighter complex. In turn, B1 came in with an equilibrium dissociation constant (Kd) of 40 nM.
